Experimental data as given in patent publication US20110045570.

Legend:
[1] = molecular target: T1, N-carbobenzoxy-Pro-citrulline-p-nitroanilide
T1 chain: P

[2] = molecular target: T2, N-carboxybenzoxy-Phe-Val-Arg-p-nitroanilide
T2 chain: FVR

[3] = molecular target: T3, N-glutaryl-Ala-Ala-Pro-Leu-p-nitroanilide
T3 chain: AAPL

[4] = molecular target: T4, N-methoxysuccinyl-Ala-Ile-Pro-Met-p-nitroanilide
T4 chain: AIPM

[5] = molecular target: T5, N-p-tosyl-Gly-Pro-Lys-p-nitroanilide
T5 chain: GPK

[6] = molecular target: T6, N-succinyl-Ala-Ala-Ala-p-nitroanilide
T6 chain: AAA

[7] = molecular target: T7, N-succinyl-Ala-Ala-Pro-Met-p-nitroanilide
T7 chain: AAPM

[8] = molecular target: T8, N-succinyl-Ala-Ala-Pro-Phe-p-nitroanilide
T8 chain: AAPF

[9] = molecular target: T9, N-succinyl-Ala-Ala-Val-Ala-p-nitroanilide
T9 chain: AAVA

[10] = molecular target: T10, N-succinyl-Ala-Ala-p-nitroanilide
T10 chain: AA

[11] = molecular target: T11, N-succinyl-Gly-Gly-Phe-p-nitroanilide
T11 chain: GGF

[12] = molecular target: T12, butyroxycarboxy-Leu-Ser-Thr-Arg-p-nitroanilide
T12 chain: LSTR

B1: alkaline protease ALTP (protein)
chain: AQSTPWGVTRVQAPNVWNRGFTGSGVRVAVLDTGIHSSHEDLTVSGGYSVFGDSPYNDVQGHGTHVAGTIAARNNSVGVIGVAYNAQLYAVKVLNNQGSGTLAGIAQGIEWARQNNMHVINMSLGGTSGSTTLQNAVNAAYNAGILVVAAAGNSGNSAGTGDNVGFPARYPNAMAVAATTSGNVRASFSSTGPAVEIAAPGQDINSTYPTNTYRSLNGTSMAAPHVAGVAALLKSARPAVTAAGIRNAMNSTALNLGNSNWYGNGLVRANNALDMVLSY
For B1, the “activity to synthetic substrate (p-nitroaniline liberated)” value (“activity … (p-nitroaniline liberated)” below) [1] was “It showed activity to ... N-carbobenzoxy-Pro-citrulline-p-nitroanilide (CBZ-Pro-Cit)”, the “activity … (p-nitroaniline liberated)” value [2] was “It showed activity to ... N-carboxybenzoxy-Phe-Val-Arg-p-nitroanilide (Z-FVR)” and the Relative activity (%) [3] was 91%. For the same protein, the Relative activity (%) [4] was 90%, the “activity … (p-nitroaniline liberated)” value [5] was “It showed activity to ... N-p-tosyl-Gly-Pro-Lys-p-nitroanilide (To-GPK)” and the “activity … (p-nitroaniline liberated)” value [6] was “It showed activity to ... N-succinyl-Ala-Ala-Ala-p-nitroanilide (AAA)”. It also gave a Relative activity (%) [7] of 74%, a Relative activity (%) [8] of 100% and a Relative activity (%) [9] of 4.6%. For the same protein, the “activity … (p-nitroaniline liberated)” value [10] was “It showed activity to ... N-succinyl-Ala-Ala-p-nitroanilide (AA)”, the “activity … (p-nitroaniline liberated)” value [11] was “It showed activity to ... N-succinyl-Gly-Gly-Phe-p-nitroanilide (GGF)” and the “initial cleavage site (LC/MS/MS of digestion fragments)” value (acidic insulin B-chain) was “alkaline protease ALTP of the invention first cleaves Leu-Tyr”. For the same protein, the “peptide bonds cleaved within 24 hours (300 ng enzyme, LC/MS/MS)” value (acidic insulin B-chain) was 26 peptide bonds of 29 peptide bonds except Phe-Val and Thr-Pro-Lys bonds are cleaved within 24 hours and the “activity … (p-nitroaniline liberated)” value [12] was “It showed activity to, besides the foregoing synthetic substrates, butyroxycarboxy-Leu-Ser-Thr-Arg-p-nitroanilide (LSTR)”.
